Legend:
[1] = target: T1, recombinant human vimentin (human, UniProt P08670 1-466, limits assumed); experiment: ELISA, A2 on immobilized recombinant human vimentin, detected with Anti-A2 or VP-1
T1 construct: also called immobilized vimentin

[2] = target: T2, multimeric von Willebrand factor purified from plasma or cryoprecipitate (UniProt P04275 764-2813); experiment: binding of A2 to full length VWF; half-maximal binding
T2 construct: mature; Disulfide-linked multimer of many subunits; number of subunits not fixed; Glycosylated; also called VWF; full length VWF

[3] = target: T3, recombinant VWF-A1 domain polypeptide (amino acids Q1238-P1471) (human, UniProt P04275 1238-1471); experiment: ELISA, increasing A2 on immobilized A1 polypeptide, Anti-A2 detection; half-maximal binding
T3 construct: range 1238-1471; Expressed in E. coli with an N-terminal His tag; also called A1 polypeptide; A1 protein; not shown: N-terminal His tag from the vector

[4] = target: T2, multimeric von Willebrand factor …; experiment: ELISA, increasing A2 on immobilized plasma VWF, anti-His detection; half-maximal binding
[5] = target: T2, multimeric von Willebrand factor …; experiment: binding of A2 to immobilized full length VWF; half-maximal binding
polymerized human fibrin = target: T4, polymerized human fibrin (human, UniProt P02671 36-629; P02675 45-491; P02679 27-437, limits assumed); experiment: ELISA, increasing A2 on immobilized polymerized human fibrin, anti-His detection; half-maximal binding
T4 construct: Immobilized polymerized fibrin; preparation not described
T4 sequence (looked up) 1: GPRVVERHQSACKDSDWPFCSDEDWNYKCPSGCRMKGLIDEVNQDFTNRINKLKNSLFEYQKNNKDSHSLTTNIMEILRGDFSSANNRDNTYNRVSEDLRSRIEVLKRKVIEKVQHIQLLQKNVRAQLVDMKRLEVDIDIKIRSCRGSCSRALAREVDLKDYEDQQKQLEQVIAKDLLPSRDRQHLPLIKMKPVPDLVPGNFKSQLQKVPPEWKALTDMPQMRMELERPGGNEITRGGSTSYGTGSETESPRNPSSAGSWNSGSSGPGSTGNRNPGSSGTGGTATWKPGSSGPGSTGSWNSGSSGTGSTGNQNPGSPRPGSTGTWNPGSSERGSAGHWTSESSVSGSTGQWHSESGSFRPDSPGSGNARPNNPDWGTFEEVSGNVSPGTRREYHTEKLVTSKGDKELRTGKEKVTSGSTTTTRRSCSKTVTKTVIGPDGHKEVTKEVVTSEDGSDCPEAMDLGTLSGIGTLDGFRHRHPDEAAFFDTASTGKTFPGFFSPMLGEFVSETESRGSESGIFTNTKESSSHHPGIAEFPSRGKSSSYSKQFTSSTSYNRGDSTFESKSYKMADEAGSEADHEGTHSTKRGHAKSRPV
T4 sequence (looked up) 2: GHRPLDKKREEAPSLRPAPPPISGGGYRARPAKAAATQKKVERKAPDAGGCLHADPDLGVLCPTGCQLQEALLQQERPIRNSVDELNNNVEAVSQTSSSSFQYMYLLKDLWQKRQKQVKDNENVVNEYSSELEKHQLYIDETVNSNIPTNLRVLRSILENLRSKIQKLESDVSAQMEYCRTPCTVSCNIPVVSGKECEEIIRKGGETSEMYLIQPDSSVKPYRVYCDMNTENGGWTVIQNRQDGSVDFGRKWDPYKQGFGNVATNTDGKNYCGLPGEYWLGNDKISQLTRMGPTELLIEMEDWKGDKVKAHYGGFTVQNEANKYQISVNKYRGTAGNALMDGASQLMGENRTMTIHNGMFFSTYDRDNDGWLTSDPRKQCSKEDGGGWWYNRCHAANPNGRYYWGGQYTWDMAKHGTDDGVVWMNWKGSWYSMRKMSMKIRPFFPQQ
T4 sequence (looked up) 3: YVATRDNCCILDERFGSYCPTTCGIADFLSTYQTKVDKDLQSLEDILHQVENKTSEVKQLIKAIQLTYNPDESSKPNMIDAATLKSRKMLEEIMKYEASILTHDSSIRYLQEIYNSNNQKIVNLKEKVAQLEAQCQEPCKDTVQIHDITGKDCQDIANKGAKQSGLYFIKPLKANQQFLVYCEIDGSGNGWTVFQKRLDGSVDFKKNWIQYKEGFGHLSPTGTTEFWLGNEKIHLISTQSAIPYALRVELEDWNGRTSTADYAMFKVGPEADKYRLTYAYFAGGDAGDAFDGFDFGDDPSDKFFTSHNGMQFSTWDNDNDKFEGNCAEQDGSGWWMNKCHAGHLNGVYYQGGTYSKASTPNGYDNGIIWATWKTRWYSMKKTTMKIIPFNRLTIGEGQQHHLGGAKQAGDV

[6] = target: T3, recombinant VWF-A1 domain polypeptide …; experiment: binding of A2 to immobilized A1 domain polypeptide; half-maximal binding
[7] = target: T3, recombinant VWF-A1 domain polypeptide …; experiment: ELISA, A2 on immobilized A1; apparent KD
[8] = target: T5, immobilized human fibrinogen (human, UniProt P02671 20-629; P02675 31-491; P02679 27-437, limits assumed); experiment: ELISA, increasing A2 on immobilized human fibrin(ogen), anti-His detection; half-maximal binding
T5 sequence (looked up) 1: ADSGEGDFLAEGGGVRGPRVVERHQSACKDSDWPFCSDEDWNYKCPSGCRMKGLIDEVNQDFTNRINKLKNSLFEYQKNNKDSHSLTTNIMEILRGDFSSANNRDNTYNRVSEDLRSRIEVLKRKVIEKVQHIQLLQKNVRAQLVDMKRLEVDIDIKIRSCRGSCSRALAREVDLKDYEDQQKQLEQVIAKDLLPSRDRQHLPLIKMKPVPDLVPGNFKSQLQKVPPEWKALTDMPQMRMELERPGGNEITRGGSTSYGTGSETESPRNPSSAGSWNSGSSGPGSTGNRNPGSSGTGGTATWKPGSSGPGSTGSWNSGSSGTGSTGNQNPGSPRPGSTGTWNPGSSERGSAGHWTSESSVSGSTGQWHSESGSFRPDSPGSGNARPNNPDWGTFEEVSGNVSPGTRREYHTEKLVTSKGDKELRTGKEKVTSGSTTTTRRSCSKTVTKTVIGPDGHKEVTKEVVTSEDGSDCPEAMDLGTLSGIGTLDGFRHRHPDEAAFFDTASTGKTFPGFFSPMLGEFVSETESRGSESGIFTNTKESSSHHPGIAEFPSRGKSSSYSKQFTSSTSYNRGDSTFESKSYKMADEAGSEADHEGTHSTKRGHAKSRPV
T5 sequence (looked up) 2: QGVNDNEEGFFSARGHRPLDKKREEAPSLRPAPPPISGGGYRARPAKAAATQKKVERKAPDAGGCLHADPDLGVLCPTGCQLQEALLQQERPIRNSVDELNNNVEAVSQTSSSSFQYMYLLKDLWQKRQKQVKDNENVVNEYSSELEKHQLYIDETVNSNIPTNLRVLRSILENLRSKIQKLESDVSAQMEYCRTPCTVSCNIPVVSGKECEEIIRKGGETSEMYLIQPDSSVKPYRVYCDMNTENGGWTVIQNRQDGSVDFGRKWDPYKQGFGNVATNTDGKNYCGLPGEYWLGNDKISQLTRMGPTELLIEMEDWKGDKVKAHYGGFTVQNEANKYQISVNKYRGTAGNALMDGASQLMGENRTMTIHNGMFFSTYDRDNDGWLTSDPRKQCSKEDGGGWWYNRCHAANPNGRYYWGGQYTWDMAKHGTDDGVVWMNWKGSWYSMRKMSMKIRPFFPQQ
T5 sequence (looked up) 3: T4 sequence (looked up) 3

[9] = target: T3, recombinant VWF-A1 domain polypeptide …; experiment: inhibition by A2 of binding of A1 domain (0.25 µM) to immobilized fixed platelets (GPIbα), static conditions
[10] = target: T2, multimeric von Willebrand factor …; experiment: ELISA, A2 on immobilized VWF; apparent KD
[11] = target: T3, recombinant VWF-A1 domain polypeptide …; experiment: binding of A2 to A1 domain polypeptide; half-maximal binding
[12] = target: T1, recombinant human vimentin; experiment: ELISA, A2 fragments on immobilized vimentin

T1 sequence (P08670 whole entry): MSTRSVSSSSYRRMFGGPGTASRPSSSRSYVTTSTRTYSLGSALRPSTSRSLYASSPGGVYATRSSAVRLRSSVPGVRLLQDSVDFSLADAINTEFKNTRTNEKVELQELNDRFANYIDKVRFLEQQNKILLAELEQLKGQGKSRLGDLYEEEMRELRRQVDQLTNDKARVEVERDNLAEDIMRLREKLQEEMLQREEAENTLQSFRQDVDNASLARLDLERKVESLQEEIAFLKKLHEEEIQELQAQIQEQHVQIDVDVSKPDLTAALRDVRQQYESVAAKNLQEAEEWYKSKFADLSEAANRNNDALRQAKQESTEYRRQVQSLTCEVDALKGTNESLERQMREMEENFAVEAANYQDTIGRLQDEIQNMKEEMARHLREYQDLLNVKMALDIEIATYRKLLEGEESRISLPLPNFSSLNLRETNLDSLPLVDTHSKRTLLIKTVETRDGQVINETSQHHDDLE

B1: recombinant VWF-A2 domain polypeptide (amino acids G1481-R1668) (other)
chain: GLLGVSTLGPKRNSMVLDVAFVLEGSDKIGEADFNRSKEFMEEVIQRMDVGQDSIHVTVLQYSYMVTVEYPFSEAQSKGDILQRVREIRYQGGNRTNTGLALRYLSDHSFLVSQGDREQAPNLVYMVTGNPASDEIKRLPGDIQVVPIGVGPNANVQELERIGWPNAPILIQDFETLPREAPDLVLQR
notes: Expressed in E. coli as a fusion protein with a His tag at the N terminus; monomeric on SDS-PAGE; also called A2 protein; VWF-A2 protein; not shown: N-terminal His tag from the vector
binding result [1]: binds | EC50 [2]: 160 nM | EC50 [3]: ~65 nM | EC50 [4]: ~200 nM | EC50 [5]: 190 nM | EC50 (polymerized human fibrin): 150 nM | EC50 [6]: 65 nM | Kd [7]: ~50 nM | EC50 [8]: 150 nM | IC50 [9]: 300 nM | Kd [10]: ~200 nM | EC50 [11]: 60 nM

B2: N-terminal fragment polypeptide of A2 (A2 G1481-Y1605) (other)
chain: GLLGVSTLGPKRNSMVLDVAFVLEGSDKIGEADFNRSKEFMEEVIQRMDVGQDSIHVTVLQYSYMVTVEYPFSEAQSKGDILQRVREIRYQGGNRTNTGLALRYLSDHSFLVSQGDREQAPNLVY
notes: Expressed in bacteria; also called N-terminal (half) of the A2 domain of VWF
binding result [12]: binds
